# Measurements reported in the DeepSol protein solubility set.
# Test: soluble on expression in E. coli; label from the status in PepcDB or PDB records
row,Sequence,soluble on expression in E. coli
1,MGSDKIHHHHHHADTTDNTTTSSSTSANSGSTVQTKALSKAYVVYGAGLASEDKDTVASALGVKSNYTALTATGSDYATYLNAAGTTDASMISSVTLAPADPGTGVKVNIAKYNGSNNITEVTSQQYAMVATMAGVKDVIITVTADKSVSGESALTGVYKALAADGLTLNSQNTQAANGVLDATQPAIDSNSSDKKYPGKLMSAVGSVSSDLAKQRQNGNELATKADIEEMLQKALAKQGIANQTSSTQITNIAIALSQVQKAPVSTSKTYIKNVTNVADSLANSIGDKMASVKDFANSADAKQAENFIVQIWHNVVNFFKGLIGG,not soluble
2,MPDRLQLLEERLVVNKDRFKAGSVQIGKRIETRQETVSVPLQREEVVIERHAVTDGRAVEGAVLGEGHQTMSVDLEAERANISKQAYVTEEVSVGKRAVTETQQVTETVGREVLDVNQTGDVRLEHHHHHH,not soluble
3,MTYLAVVLNGPKAKNGRKVFDSFLEQNRQMFWNRELTSACESITYMGFMRPGTLFVSGPASQLTVLKDAWARRILKPAMGYTITSLGDLGAIQQVEQMHFVPLGDVICDAVAQLNRQGLAATEQAIRQYVARHCPHVAPPGIEMVRQTITSLLSTGFVYKMADHYFVSVPTNSPMRPPAKAATKTTKTTVECQTGASMMCPQQTSTSSDEHVIEPAKKDHKKCQNSNRRSIFARLFSRGMKPQTIMPSASPIHVGGPPTPPPAAMLPTKNKYPTYHHDLNEECQRKARRRNHPRRGETQKLLSSSSECLKYYPVDMPETRPTRRRARMASPLRSSTPNNSDSAYSISPPHTDSNEEAGSISDSEINHTYININKFRRQNFDSTQFEDLTGATATTSEEPEILGRHIRGVLISNL,not soluble
4,MALNADDEDFEWEPPSEAEMKVIQARRERQDKISKLMGDYLLKGYKMLGECCELCGTILLQDKQKKNYCVACQELDSDVDKDNPALNAQAALSQVRERQLATQPVPESNGASSSEPPLSITGQPRPEHCEGAASGLRGPPPTVQPTPLSIPTPASNFLPPSNPPVQTTPPVGSSGSSLHHHPALSSAEEAVLHKLRWATQELQHAASVEASIQLCNLIRGCAESLRSLKELQLS,not soluble
5,MSQVMEVVGGKWRLNVLWVINKYQSIRFNQLKREVNGITTIMLTRSLDILITNELVEKVDFQTLPLHVKYQLSSKGKSLMPLLKQINQWGKLYLLEHHHHHH,not soluble
6,MSLGTRAPSFTPERSVEISGGEDGYFQARGTISGPLGETLAGRLSAYRTRDDGYVKNLHDGNTLNGGARQGFRGQLLFKPNDDFSLRWIGDYNEEDSDNGVLTLFSSGPTVNGVNRYEQRAAAAGATLVDGHRRKVNFDSDQQVTVFQGGTSVEANWKLANDFTLTSISAYRWWDFTPRNDDGLDVPAAYNAGVSVRDKQWSQEIRLASPSGGFFDYVLGAYYFGQDLDNKSFTDYGPRADIWNGTPAGALSDVSTRGRGHIDTDSYALFAQGTWHLTERLDLTAGVRGTYEEKSAWVEREGHHHHHH,soluble
7,MPSNSTTGAQKCSRKVHSLKFKLEAIEYASKFSKTKAARDLKVSRQCIQDWVAQKTKIESQLKSTNKTAPKRLEGGGRPVQRETVDESVLRWFRDQREKKFRVSRNLIRQKAKEICGEDDFKASTGWLQKFMRRHHLSTRRATTTCQKEPDEFAKKIVDYVLFVEKMRLQNKYTDTHIFAADETAVYLDFSNSLTLNEKGAREVGKTNTLFFYFSHPMMKRCLILFQVPVKTTGHEKMHVTVLLTARADGYKCRPYVLLPRTRPDKEIAARFKNSLQLSWCNRTFFNDEVTEDYLNTIIGPPFFGKRLLAWDAFRCHISDATKRVLKNLKVDTAVVPGGCTKFVQAPDVYWNSPFKASIRRSYEDWMVHGQKSFTKSNNMRPPSMLQYLEWIENAWNDLPKDLILKSFKGCALTIATDGSEDNQVHCFAPNGSIPSGLDLLNSTRIENSLVDLVQDIGIDESQEEGNESDNSIISVG,not soluble
8,MASISSLGVGSGLDLSSILDSLTAAQKATLTPISNQQSSFTAKLSAYGTLKSALTTFQTANTALSKADLFSATSTTSSTTAFSATTAGNAIAGKYTISVTHLAQAQTLTTRTTRDDTKTAIATSDSKLTIQQGGDKDPISIDISAANSSLSGIRDAINNAKAGVSASIINVGNGEYRLSVTSNDTGLDNAMTLSVSGDDALQSFMGYDASASSNGMEVSVAAQNAQLTVNNVAIENSSNTISDALENITLNLNDVTTGNQTLTITQDTSKAQTAIKDWVNAYNSLIDTFSSLTKYTAVDAGADSQNSSNGALLGDSTLRTIQTQLKSMLSNTVSSSNYKTLAQIGITTDPSDGKLELDADKLTAALKKDASGVGALIVGDGKKTGITTTIGSNLTSWLSTTGIIKAATDGVSKTLNKLTKDYNAASDRIDAQVARYKEQFTQLDVLMTSLNSTSSYLTQQFENNSNSK,not soluble
